Here are results for one protein from publication PMC4933373, “Conformational Stability of the NH2-Terminal Propeptide of the Precursor of Pulmonary Surfactant Protein SP-B” (PLoS ONE, 2016).

Data set [1] deals with the molecule itself. The data set can be described thus: AUC; sedimentation velocity, 0.15 mg/mL SP-BN in 5 mM Tris-HCl pH 7.0, 150 mM NaCl, 20°C, 48,000 rpm.
Data set [2] concerns the molecule itself. The data set can be described thus: AUC; sedimentation velocity, 0.15 mg/mL SP-BN in 5 mM Tris-HCl pH 7.0, 500 mM NaCl, 20°C, 48,000 rpm; 35% of the loaded protein detected.
Data set [3] concerns the molecule itself. The data set can be described thus: cross-linking; 0.26 mg/mL SP-BN in 20 mM Tris-HCl, 500 mM NaCl pH 7.0, 0.08% (v/v) glutaraldehyde for 20 s and 120 s at 20°C; SDS-PAGE and immunoblot. A general note: Immunoblotting shows a protein as a band on a membrane.
Data set [4] deals with the molecule itself. The data set can be described thus: differential scanning calorimetry; 0.3 mg/mL SP-BN in 5 mM Tris-HCl pH 7, 500 mM NaCl, 20-120°C at 60°C/h; second transition fitted to the Non Two-State model with two peaks; ratio of van't Hoff to calorimetric enthalpy. In general terms: DSC measures the heat that a sample takes up or gives off during a temperature scan.

B1: NH2-terminal propeptide of the precursor of pulmonary surfactant protein SP-B (recombinant human SP-BN) (domain or fragment, UniProt P07988 24-200, looked up)
chain: AWTTSSLACAQGPEFWCQSLEQALQCRALGHCLQEVWGHVGADDLCQECEDIVHILNKMAKEAIFQDTMRKFLEQECNVLPLKLLMPQCNQVLDDYFPLVIDYFQNQTDSNGICMHLGLCKSRQPEPEQEPGMSDPLPKPLRDPLPDPLLDKLVLPVLPGALQARPGPHTQDLSEQQ
notes: 177 amino acids, 19,902 Da from the composition; Not glycosylated (made in bacteria); also called N-terminal propeptide of proSP-B; the propeptide; source: E. coli, expressed as fusion MBP-SP-BN, purified after cleaving the fusion with factor Xa
As to B1, the stoichiometry N (usually the number of molecules, sites or subunits per partner or assembly) was 2 in data set [1], 6 in data set [2], 3 in data set [3] and around 4 in data set [4].
